The text below walks through data of article PMC4887326, “Structural insights into the regulatory mechanism of the Pseudomonas aeruginosa YfiBNR system” (Protein & Cell, 2016).

Positions count from the first letter of the chain named. In names and notes the source's numbering stands.

B1: YfiR (residues 35–190), co-expressed with YfiB (domain or fragment, P. aeruginosa, UniProt Q9I4L4 35-190, looked up)
chain: DDARTSIEQRSNAVSQVLLGIFSYVRWPKEPAVLQLCVVGPTEYADGLLRGMVQANGRRVHAERRAVDNPDLGTLCNVIYLGVVDERERQQVFRSLAGHPVLSISERGTECSVGSMFCLNVGGPRITFEANLDSIARSGVRVHPSVLKLARRQATP
notes: YfiR, P. aeruginosa, residues 35-190, lacking the signal peptide; ORF1 of pETDuet-1 with N-terminal His6 and a TEV cleavage site; Dimer in the 2:2 complex; only the Cys145-Cys152 disulfide is well formed there; not shown: His6, N-terminal, kept
B2: YfiR (residues 35–190), purified alone (domain or fragment, P. aeruginosa, UniProt Q9I4L4 35-190, looked up)
chain: B1 chain
notes: YfiR, P. aeruginosa, residues 35-190, lacking the predicted N-terminal periplasmic localization signal peptide; also called native YfiR; not shown: His6, N-terminal, cleaved
B3: YfiB (residues 34–168), wild type (domain or fragment)
chain: GLSAEQIAVLQEQGFELRDEGWEFGMSSKVLFGNNLDRLNPDSRNTLTKIARALLAVDIDKVRLEGHTDNYGDEGYNQKLSERRAESVAAVFREAGMPAANIEVRGLGMSKPVADNKTRAGRSENRRVAIIVPAE
notes: YfiB, P. aeruginosa, residues 34-168, lacking the signal peptide (residues 1-26) and periplasmic residues 27-33; ORF1 of pETDuet-1 with N-terminal His6 and a TEV cleavage site; no cleavage of the tag is told for YfiB; Monomer and dimer in solution (AUC); also called wild-type YfiB; apo YfiB
B4: YfiB^L43P (residues 34–168), co-expressed with YfiR (domain or fragment)
chain: B3 chain with L10P
notes: YfiB, P. aeruginosa, residues 34-168, with L43P; residues 44-168 are visible in the complex structure; Two copies in the 2:2 heterotetramer, separated from each other

Data set [1] concerns the molecule itself. The data set can be described thus: crystal structure; YfiB^L43P-YfiR complex, space group P1, 1.78 Å, 2:2 heterotetramer in the asymmetric unit; 0.2 mol/L ammonium sulfate, 0.1 mol/L Tris-HCl pH 8.0, 12% PEG 8000, 293 K.
Data set [2] concerns the molecule itself. Kind of data set: crystal structure; VB6-bound (soaked, 2.4 Å) and Trp-bound (co-crystallised, 2.5 Å) YfiR, space group P4_3 2_1 2, a dimer in the asymmetric unit.
Data set [3] deals with the molecule itself. Kind of data set: AUC; sedimentation velocity, 25°C, samples at OD280 of 0.7 in 20 mmol/L Tris pH 8.0, 200 mmol/L NaCl, 60,000 rpm; dimer to monomers.
In data set [4] the target is B1. The data set can be described thus: crystal structure; YfiB^L43P-YfiR complex, space group P1, 1.78 Å, 2:2 heterotetramer in the asymmetric unit; 0.2 mol/L ammonium sulfate, 0.1 mol/L Tris-HCl pH 8.0, 12% PEG 8000, 293 K. The settings on record: both partners purified.

Take B1: the binding result in data set [1] is listed as “binds”.

Regarding B2, the binding result in data set [2] is recorded as “binds”. As usually defined, the stoichiometry N is the number of molecules, sites or subunits per partner or assembly. Consider B3, for which, in data set [3], the “stoichiometry N” value stood at 2. With B4, the “stoichiometry N” value in data set [4] was 1 YfiB per YfiR (printed as 2:2).
